Data on four molecules can be found in article PMC10775985, “Malaria parasite centrins can assemble by Ca^2+-inducible condensation” (PLOS Pathogens, 2023).

Series [1] has as its target PfCen3-6His (P. falciparum centrin 3, 6His-tagged) (P. falciparum). Kind of series: turbidity (light scattering); PfCen1-6His and PfCen3-6His at individually subcritical concentrations, alone with BSA to a total protein concentration of >20 μM or as a mixture; calcium, then EDTA; 50 mM BisTris pH 7.1, 37°C.
In series [2] the target is PfCen1-6His (P. falciparum centrin 1, 6His-tagged) (P. falciparum). Kind of series: turbidity (light scattering); range of PfCen1-6His concentrations to find the saturation concentration; CaCl2 to 2 mM; 50 mM BisTris pH 7.1, 37°C, no salt or PEG.
For series [3] the target is unchanged. Kind of series: turbidity (light scattering); PfCen1-6His and PfCen3-6His at individually subcritical concentrations, alone with BSA to a total protein concentration of >20 μM or as a mixture; calcium, then EDTA; 50 mM BisTris pH 7.1, 37°C.
Series [4] concerns the molecule itself. Kind of series: light microscopy of droplets in purified protein solutions; self-assembly into droplets; concentrated recombinant centrin (100-200 μM), 2 mM CaCl2 added, then 10 mM EDTA; 50 mM BisTris pH 7.1, 37°C.

For the molecule “PfCen3-6His (P. falciparum centrin 3, 6His-tagged) (natural protein)”, in series [1], the csat (saturation concentration) amounted to 10 µM.
On to “PfCen1-6His (P. falciparum centrin 1, 6His-tagged) (natural protein)”, for which the csat (critical saturation concentration) in series [2] was in the range of 10 to 15 µM. Moreover, the csat (saturation concentration) in series [3] is 10 µM.

B1: HsCen2-6His (human centrin 2, 6His-tagged) (natural protein, UniProt P41208 1-172, looked up)
chain: MASNFKKANMASSSQRKRMSPKPELTEEQKQEIREAFDLFDADGTGTIDVKELKVAMRALGFEPKKEEIKKMISEIDKEGTGKMNFGDFLTVMTQKMSEKDTKEEILKAFKLFDDDETGKISFKNLKRVAKELGENLTDEELQEMIDEADRDGDGEVSEQEFLRIMKKTSLY
notes: human centrin 2 (HsCen2); mass spectrometry confirmed full length except for cleavage of methionine 1; source: E. coli BL21-CodonPlus (DE3), pET-28, purified (Ni-NTA); not shown: 6His, C-terminal, kept
For B1, the binding result in series [4] was “binds”.

B2: ScCdc31-6His (Saccharomyces cerevisiae centrin Cdc31) (natural protein, UniProt P06704 1-161, looked up)
chain: MSKNRSSLQSGPLNSELLEEQKQEIYEAFSLFDMNNDGFLDYHELKVAMKALGFELPKREILDLIDEYDSEGRHLMKYDDFYIVMGEKILKRDPLDEIKRAFQLFDDDHTGKISIKNLRRVAKELGETLTDEELRAMIEEFDLDGDGEINENEFIAICTDS
notes: Saccharomyces cerevisiae centrin Cdc31, 161 aa, 19 kDa; source: recombinant, pET-28 construct from a synthetic codon optimized gene
In the case of B2, in series [4], the binding result is “binds”.
